This experiment has as its target Rgps of P. gingivalis HG66 (all gingipain activity released in soluble, non-glycosylated form into media).

B1: PD_(RgpB), recombinant N-terminal prodomain of RgpB, P95493 25-229 (domain or fragment)
chain: GPLGSQPAERGRNPQVRLLSAEQSMSKVQFRMDNLQFTGVQTSKGVAQVPTFTEGVNISEKGTPILPILSRSLAVSETRAMKVEVVSSKFIEKKDVLIAPSKGVISRAENPDQIPYVYGQSYNEDKFFPGEIATLSDPFILRDVRGQVVNFAPLQYNPVTKTLRIYTEIVVAVSETAEAGQNTISLVKNSTFTGFEDIYKSVFMNYEATR
For B1, the IC50 of inhibition of Rgp activity (L-BAPNA): HG66 (cell-free culture medium) stood at 12 nM and the IC50 of inhibition of Rgp activity (L-BAPNA): HG66 (whole culture) worked out at 116 nM.

For the origin of these results see paper PMC3773880.
